Test results from patent US7354588B1, “Functional derivatives of ICAM-1 with altered ability to bind LFA-1 or HRV” (Dana Farber Cancer Institute, priority 1987, dated 2008).
“Also recorded” adds a separate entry of the source.

Legend:
[1] = tested on: R6.5 mAb; experiment: Indirect immunofluorescence flow cytofluorometry: mAb R6.5 binding to COS cells expressing ICAM-1 mutants (SLFI, % CL203); assay type: cell-based; details: SLFI normalized to CL203 SLFI of the mutant
Protocol: (§1) For HRV binding studies, COS cells were reseeded in a 24 well plate. One day later, the confluent monolayer was washed twice with 1 ml of RPMI 1640/10 mM MgCl2/25 mM Hepes pH 7.3 (rhinovirus-14 buffer). Transfected COS cells were labeled with 51Cr for binding to LFA-1 coated plastic as previously described (Staunton, D. E., et al., Nature 339:61-64 (1989). Immunoprecipitation and indirect immunofluorescence was performed using ICAM-1 MAb RR1/1 (Rothlein, R., et al., J. Immunol. 137:1270-1274 (1986)), R6.5 (Rothlein, R., et al., J. Immunol. 141:1665-1669 (1988)), LB-1 (Clark, E. A., et al., Hum. Immunol. 16:100-113 (1986)) and CL203 (Maio, M., J. Immunol. 143:181-188 (1989), all of which references are incorporated herein by reference).
(§2) Binding of RR1, R6.5, and LB-2 mAb was normalized to binding of CL203 mAb using Specific Linear Fluorescence Intensity (SLFI): % CL203=(mAbSLFI)×100)/CL203mABSLFI
(§3) In Table 25, the notation for the mutations uses the one-letter code for the wild-type sequence followed by a slash and the one-letter code for the corresponding mutant sequence. The position of the first amino acid within the sequence is indicated. Wild type residues precede the slash followed by the residues they were substituted for in the mutant. COS cells expressing ICAM-1 mutants were tested for adherence to LFA-1 coated plastic and for binding 35S met-labeled HRV14. LFA-1 and HRV14 binding is normalized for percent of cells expressing mutant ICAM-1 and for binding of wild type expressing cells. Binding is presented as mean and standard error (SE) for multiple experiments (n). Effects of two-fold or greater were reproducible in LFA-1, HRV and mAb binding assays and thus considered significant (bold and underlined). The specific linear fluorescence intensity (SLFI) of CL203 for each mutant is normalized to that of wild type CL203 SLFI (% WT) as discussed above. The SLFI of RR1/1, R6.5 and LB-2 SLFI is normalized to the CL203 SLFI of the mutant (% CL203) as described above.

[2] = tested on: RR1/1 mAb; experiment: Indirect immunofluorescence flow cytofluorometry: mAb RR1/1 binding to COS cells expressing ICAM-1 mutants (SLFI, % CL203); assay type: cell-based; details: SLFI normalized to CL203 SLFI of the mutant
Protocol: as §1, §2, §3

[3] = biological target: T1, LFA-1 (Homo sapiens, UniProt P05107+P20701); experiment: Adherence of COS cells expressing ICAM-1 or ICAM-1 mutants to plastic-bound purified LFA-1; assay type: cell-based; details: for LFA-1 Binding %: COS cells expressing ICAM-1 mutant adhering to LFA-1 coated plastic, normalized for percent of cells expressing mutant and for wild type binding, mean; for LFA-1 binding of ICAM-1 mutant (in words): COS cells expressing the mutant, relative to wild type
T1 construct: endogenous in cells
T1 sequence (P20701 26-1170): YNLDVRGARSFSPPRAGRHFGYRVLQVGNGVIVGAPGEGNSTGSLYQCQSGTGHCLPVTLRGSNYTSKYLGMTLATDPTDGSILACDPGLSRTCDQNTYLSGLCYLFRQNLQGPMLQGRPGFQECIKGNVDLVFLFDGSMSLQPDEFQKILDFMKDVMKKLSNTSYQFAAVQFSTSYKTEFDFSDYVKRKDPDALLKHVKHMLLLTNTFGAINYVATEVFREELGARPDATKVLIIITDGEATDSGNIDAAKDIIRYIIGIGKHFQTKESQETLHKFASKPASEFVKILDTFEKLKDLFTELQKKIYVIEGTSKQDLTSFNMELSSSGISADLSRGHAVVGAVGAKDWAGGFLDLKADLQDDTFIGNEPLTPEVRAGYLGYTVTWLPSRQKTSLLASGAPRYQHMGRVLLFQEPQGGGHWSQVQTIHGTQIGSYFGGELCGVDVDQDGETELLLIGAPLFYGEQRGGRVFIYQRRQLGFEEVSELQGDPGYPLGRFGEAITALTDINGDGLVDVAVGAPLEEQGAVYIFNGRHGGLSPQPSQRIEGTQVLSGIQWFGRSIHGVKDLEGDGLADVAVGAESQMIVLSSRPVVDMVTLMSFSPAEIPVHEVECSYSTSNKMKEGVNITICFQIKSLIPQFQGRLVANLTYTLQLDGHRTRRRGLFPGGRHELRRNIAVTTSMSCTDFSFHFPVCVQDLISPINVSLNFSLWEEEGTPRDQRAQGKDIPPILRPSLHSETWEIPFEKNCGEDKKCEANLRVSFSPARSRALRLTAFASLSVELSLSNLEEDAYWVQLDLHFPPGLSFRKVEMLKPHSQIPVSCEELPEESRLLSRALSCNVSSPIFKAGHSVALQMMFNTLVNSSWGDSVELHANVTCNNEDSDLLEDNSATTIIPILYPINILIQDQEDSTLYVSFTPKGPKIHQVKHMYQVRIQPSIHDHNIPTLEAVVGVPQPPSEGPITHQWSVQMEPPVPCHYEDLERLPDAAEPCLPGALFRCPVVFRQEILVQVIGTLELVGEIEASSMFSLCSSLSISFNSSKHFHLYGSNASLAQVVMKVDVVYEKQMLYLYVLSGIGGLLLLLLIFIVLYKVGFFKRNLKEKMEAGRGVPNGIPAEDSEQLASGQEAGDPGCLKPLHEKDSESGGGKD
T1 sequence (P05107 23-769): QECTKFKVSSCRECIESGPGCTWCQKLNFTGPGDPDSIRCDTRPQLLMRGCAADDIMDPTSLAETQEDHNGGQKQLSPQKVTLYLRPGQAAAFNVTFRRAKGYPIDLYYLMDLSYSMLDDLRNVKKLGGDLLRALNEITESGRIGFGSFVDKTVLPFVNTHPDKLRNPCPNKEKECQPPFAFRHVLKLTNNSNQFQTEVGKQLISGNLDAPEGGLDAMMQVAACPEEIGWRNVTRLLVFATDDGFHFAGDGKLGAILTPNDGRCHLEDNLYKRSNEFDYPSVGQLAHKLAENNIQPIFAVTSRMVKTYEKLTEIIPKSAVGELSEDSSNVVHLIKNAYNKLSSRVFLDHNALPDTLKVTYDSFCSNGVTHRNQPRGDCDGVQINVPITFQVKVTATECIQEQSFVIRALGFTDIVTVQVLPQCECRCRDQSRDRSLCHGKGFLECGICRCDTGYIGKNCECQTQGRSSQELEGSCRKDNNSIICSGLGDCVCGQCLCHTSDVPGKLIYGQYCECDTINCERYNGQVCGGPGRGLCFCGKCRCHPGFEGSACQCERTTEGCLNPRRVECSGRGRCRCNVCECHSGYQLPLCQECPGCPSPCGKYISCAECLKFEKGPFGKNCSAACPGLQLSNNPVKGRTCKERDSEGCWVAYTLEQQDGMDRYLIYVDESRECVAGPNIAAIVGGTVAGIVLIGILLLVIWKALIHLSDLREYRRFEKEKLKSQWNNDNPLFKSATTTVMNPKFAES

[4] = tested on: LB-2 mAb; experiment: Indirect immunofluorescence flow cytofluorometry: mAb LB-2 binding to COS cells expressing ICAM-1 mutants (SLFI, % CL203); assay type: cell-based; details: SLFI normalized to CL203 SLFI of the mutant
Protocol: as §1, §2, §3

[5] = tested on: HRV14; experiment: Binding of [^35S]-Met labeled HRV14 to COS cells expressing ICAM-1 mutants; assay type: cell-based, human rhinovirus 14; details: for HRV Binding %: 35S met-labeled HRV14 binding to COS cells expressing ICAM-1 mutant, normalized for percent of cells expressing mutant and for wild type binding, mean
[6] = tested on: CL203 mAb; experiment: Indirect immunofluorescence flow cytofluorometry: mAb CL203 binding to COS cells expressing ICAM-1 mutants (SLFI, % WT); assay type: cell-based; details: SLFI of CL203 for mutant normalized to wild type CL203 SLFI; level of expression
Protocol: as §1, §2, §3

[7] = COS cells expressing the mutant, relative to wild type

B1: V4/G: ICAM-1 mutant, replacement of V4 with G (protein, UniProt P05362 28-532, looked up, variant V4G)
Intercellular adhesion …: QTSGSPSKVILPRGGSVLVTCSTSCDQPKLLGIETPLPKKELLLPGNNRKVYELSNVQEDSQPMCYSNCPDGQSTAKTFLTVYWTPERVELAPLPSWQPVGKNLTLRCQVEGGAPRANLTVVLLRGEKELKREPAVGEPAEVTTTVLVRRDHHGANFSCRTELDLRPQGLELFENTSAPYQLQTFVLPATPPQLVSPRVLEVDTQGTVVCSLDGLFPVSEAQVHLALGDQRLNPTVTYGNDSFSAKASVSVTAEDEGTQRLTCAVILGNQSQETLQTVTIYSFPAPNVILTKPEVSEGTEVTVKCEAHPRAKVTLNGVPAQPLGPRAQLLLKATPEDNGRSFSCSATLEVAGQLIHKNQTRELRVLYGPRLDERDCPGNWTWPENSQQTPMCQAWGNPLPELKCLKDGTFPLPIGESVTVTRDLEGTYLCRARSTQGEVTRKVTVNVLSPRYEIVIITVVAAAVIMGTAGLSTYLYNRQRKIKKYRLQQAQKGTPMKPNTQATPP
SLFI (% CL203) R6.5 [1]: 73 % CL203 | SLFI (% CL203) RR/1 [2]: 47 % CL203 | LFA-1 Binding % [3]: 64% | LFA-1 binding of ICAM-1 mutant (in words) [3]: less able to bind to LFA-1 | SLFI (% CL203) LB-2 [4]: 58 % CL203 | HRV Binding % [5]: 30% | Cl203 % WT (SLFI) [6]: 111 % WT

B2: R13/E: ICAM-1 mutant, replacement of R13 with E (protein, UniProt P05362 28-532, looked up, variant R13E)
Intercellular adhesion …: QTSVSPSKVILPEGGSVLVTCSTSCDQPKLLGIETPLPKKELLLPGNNRKVYELSNVQEDSQPMCYSNCPDGQSTAKTFLTVYWTPERVELAPLPSWQPVGKNLTLRCQVEGGAPRANLTVVLLRGEKELKREPAVGEPAEVTTTVLVRRDHHGANFSCRTELDLRPQGLELFENTSAPYQLQTFVLPATPPQLVSPRVLEVDTQGTVVCSLDGLFPVSEAQVHLALGDQRLNPTVTYGNDSFSAKASVSVTAEDEGTQRLTCAVILGNQSQETLQTVTIYSFPAPNVILTKPEVSEGTEVTVKCEAHPRAKVTLNGVPAQPLGPRAQLLLKATPEDNGRSFSCSATLEVAGQLIHKNQTRELRVLYGPRLDERDCPGNWTWPENSQQTPMCQAWGNPLPELKCLKDGTFPLPIGESVTVTRDLEGTYLCRARSTQGEVTRKVTVNVLSPRYEIVIITVVAAAVIMGTAGLSTYLYNRQRKIKKYRLQQAQKGTPMKPNTQATPP
SLFI (% CL203) R6.5 [1]: 48 % CL203 | SLFI (% CL203) RR/1 [2]: 4 % CL203 | LFA-1 Binding % [3]: 1% | LFA-1 binding of ICAM-1 mutant (in words) [3]: substantially less capacity to bind LFA-1 | SLFI (% CL203) LB-2 [4]: 4 % CL203 | HRV Binding % [5]: 10% | Cl203 % WT (SLFI) [6]: 202 % WT

B3: E34/A: ICAM-1 substitution mutant, E34 replaced with A (protein, UniProt P05362 28-532, looked up, variant E34A)
Intercellular adhesion …: QTSVSPSKVILPRGGSVLVTCSTSCDQPKLLGIATPLPKKELLLPGNNRKVYELSNVQEDSQPMCYSNCPDGQSTAKTFLTVYWTPERVELAPLPSWQPVGKNLTLRCQVEGGAPRANLTVVLLRGEKELKREPAVGEPAEVTTTVLVRRDHHGANFSCRTELDLRPQGLELFENTSAPYQLQTFVLPATPPQLVSPRVLEVDTQGTVVCSLDGLFPVSEAQVHLALGDQRLNPTVTYGNDSFSAKASVSVTAEDEGTQRLTCAVILGNQSQETLQTVTIYSFPAPNVILTKPEVSEGTEVTVKCEAHPRAKVTLNGVPAQPLGPRAQLLLKATPEDNGRSFSCSATLEVAGQLIHKNQTRELRVLYGPRLDERDCPGNWTWPENSQQTPMCQAWGNPLPELKCLKDGTFPLPIGESVTVTRDLEGTYLCRARSTQGEVTRKVTVNVLSPRYEIVIITVVAAAVIMGTAGLSTYLYNRQRKIKKYRLQQAQKGTPMKPNTQATPP
SLFI (% CL203) R6.5 [1]: 150 % CL203 | SLFI (% CL203) RR/1 [2]: 142 % CL203 | LFA-1 Binding % [3]: 0% | LFA-1 binding of ICAM-1 mutant (in words) [3]: completely eliminates LFA-1 binding; also recorded: totally eliminates LFA-1 binding | LFA-1 binding of ICAM-1 mutant (in words) ([3]; listed as E34): substantially less capacity to bind LFA-1 | SLFI (% CL203) LB-2 [4]: 142 % CL203 | HRV Binding % [5]: 66% | HRV14 binding of ICAM-1 mutant (in words) [5, 7]: weak or a non-detectable affect on HRV binding | decrease in HRV14 binding [5, 7]: 2 fold | Cl203 % WT (SLFI) [6]: 132 % WT

B4: Q58/H: ICAM-1 substitution mutant, Q58 replaced with H (protein, UniProt P05362 28-532, looked up, variant Q58H)
Intercellular adhesion …: QTSVSPSKVILPRGGSVLVTCSTSCDQPKLLGIETPLPKKELLLPGNNRKVYELSNVHEDSQPMCYSNCPDGQSTAKTFLTVYWTPERVELAPLPSWQPVGKNLTLRCQVEGGAPRANLTVVLLRGEKELKREPAVGEPAEVTTTVLVRRDHHGANFSCRTELDLRPQGLELFENTSAPYQLQTFVLPATPPQLVSPRVLEVDTQGTVVCSLDGLFPVSEAQVHLALGDQRLNPTVTYGNDSFSAKASVSVTAEDEGTQRLTCAVILGNQSQETLQTVTIYSFPAPNVILTKPEVSEGTEVTVKCEAHPRAKVTLNGVPAQPLGPRAQLLLKATPEDNGRSFSCSATLEVAGQLIHKNQTRELRVLYGPRLDERDCPGNWTWPENSQQTPMCQAWGNPLPELKCLKDGTFPLPIGESVTVTRDLEGTYLCRARSTQGEVTRKVTVNVLSPRYEIVIITVVAAAVIMGTAGLSTYLYNRQRKIKKYRLQQAQKGTPMKPNTQATPP
SLFI (% CL203) R6.5 [1]: 107 % CL203 | SLFI (% CL203) RR/1 [2]: 93 % CL203 | LFA-1 Binding % [3]: 109% | LFA-1 binding of ICAM-1 mutant (in words) [3]: substantially normal capacity to bind LFA-1 | SLFI (% CL203) LB-2 [4]: 93 % CL203 | HRV Binding % [5]: 1% | HRV14 binding of ICAM-1 mutant (in words) [5, 7]: virtually eliminated HRV14 binding | Cl203 % WT (SLFI) [6]: 135 % WT

B5: N103/K: ICAM-1 mutant, replacement of N103 with K (protein, UniProt P05362 28-532, looked up, variant N103K)
Intercellular adhesion …: QTSVSPSKVILPRGGSVLVTCSTSCDQPKLLGIETPLPKKELLLPGNNRKVYELSNVQEDSQPMCYSNCPDGQSTAKTFLTVYWTPERVELAPLPSWQPVGKKLTLRCQVEGGAPRANLTVVLLRGEKELKREPAVGEPAEVTTTVLVRRDHHGANFSCRTELDLRPQGLELFENTSAPYQLQTFVLPATPPQLVSPRVLEVDTQGTVVCSLDGLFPVSEAQVHLALGDQRLNPTVTYGNDSFSAKASVSVTAEDEGTQRLTCAVILGNQSQETLQTVTIYSFPAPNVILTKPEVSEGTEVTVKCEAHPRAKVTLNGVPAQPLGPRAQLLLKATPEDNGRSFSCSATLEVAGQLIHKNQTRELRVLYGPRLDERDCPGNWTWPENSQQTPMCQAWGNPLPELKCLKDGTFPLPIGESVTVTRDLEGTYLCRARSTQGEVTRKVTVNVLSPRYEIVIITVVAAAVIMGTAGLSTYLYNRQRKIKKYRLQQAQKGTPMKPNTQATPP
SLFI (% CL203) R6.5 [1]: 60 % CL203 | SLFI (% CL203) RR/1 [2]: 17 % CL203 | LFA-1 Binding % [3]: 12% | LFA-1 binding of ICAM-1 mutant (in words) [3]: substantially incapable of binding LFA-1 | SLFI (% CL203) LB-2 [4]: 22 % CL203 | HRV Binding % [5]: 13% | Cl203 % WT (SLFI) [6]: 91 % WT
